US20170095417A1, “Percutaneous Implement and Method for Manufacturing” (priority 2015, published 2017)
Values belong to the compound of their own block, whether it stands above or below them.

Assays:
skin [1] = conditions: in vivo
[2] = format: physicochemical
Source text: (§1) Quadrangular pyramidal micro-head of 0.7 mm length and 0.1 mm bottom side length was contained anhydrous and amorphous oblate spheroidal Maltose chip of 0.02 mm length and 0.01 mm diameter. The chip was made from mixing material of 50% Maltose and 50% Hyaluronic acid included 30% albumen which was non-heat resistance limited in 70 degree centigrade. Three micro-heads were installed in three lengths of micro implements of 1 mm, 2 mm, and 3 mm.

skin [3] = conditions: rat, in vivo
Source text: as §1

rat = experiment: Micro payload injected in rat, hypotension and dye distribution (Example 5); format: in vivo; conditions: half-shell Maltose cone mixed 1 mg Alprostadil, indicates vasodilation
Procedure: A sample of micro payload integrated a 1 mm length conic micro-head with drug and 2 mm length micro-stem without drug was injected in rat.

transfer of chip into skin (skin [1]): completely transferred into skin
Compound: Hyaluronic acid

Compound: albumin
heat stability in forming process [2]: resisted temperature of the micro implement forming process | aggregation depths versus implement length (skin [3]): corresponded to the three length respectively | deposition in skin (skin [3]): albumin aggregation in skin

Compound: CCCCC[C@H](O)/C=C/[C@H]1[C@H](O)CC(=O)[C@@H]1CCCCCCC(=O)O [Alprostadil]
hypotension (rat): 20 mmHg
